Measured values: patent US20250236667A1, “ANTIBODIES TO MUTANT CALRETICULIN AND USES THEREOF” (CENTRAL ADELAIDE LOCAL HEALTH NETWORK INC, priority 2021, published 2025)

What was measured:
Type in all cases: cell-based, human
[1] = system: TF-1 TpoR CALR^del61 cells; assay: Flow cytometry of 4D7 binding to the cell surface, mutant CALR cells; conditions: PE-conjugated 4D7; vs unstained or isotype-PE control
Experimental: TF-1 cells expressing TpoR and mutant CALR were incubated for 30 minutes 4D7 conjugated to phycoerthryin (PE) (Abcam, #AB102918) or IgG2a PE isotype control (ThermoFisher #12-4321-42) at the concentrations specified after pre-incubation with mouse serum. Cells were washed 1 × before analysis on a CytoFLEX (Beckman Coulter).

JAK2 V617F SET2 cells = assay: Cell proliferation, trypan blue exclusion; conditions: 2, 10 or 20 μg/mL
Experimental: (§1) A. Cytokine dependent TF-1 TpoR cells with an overexpression of WT CALR cultured in the absence of TPO, 10 ng/ml hTPO and 10 or 20 μg/mL 4D7 anti-mutant CALR antibody or 20 μg/mL control IgG antibody for 5 days and the number of trypan blue negative cells were counted every 24 hours (n=3). B. Cytokine dependent TF-1 CALR^del52 cells, lacking TpoR were cultured in the presence of 2 ng/mL GM-CSF and 10 or 20 μg/mL 4D7 or 20 μg/mL control IgG antibody (n=3). C. Cytokine dependent TF-1 CALR^del61 cells, lacking TpoR were cultured in the presence of 2 ng/ml GM-CSF and 10 or 20 μg/mL 4D7 or 20 μg/mL control IgG antibody (n=3). D. MARIMO cells from which the CALR^del61 mutation was originally amplified were cultured in the presence of 2, 10 or 20 μg/mL 4D7 or 20 μg/mL control IgG antibody (n=3). E. Cytokine independent SET2 cells which harbour the pathogenic JAK2^V617F mutation were cultured in the presence of 2, 10 or 20 μg/mL 4D7 or 20 μg/mL control IgG antibody (n=3). F. Cytokine independent TF-1 PTPN11^E76K cells were cultured in the presence of 10 or 20 μg/mL 4D7 or 20 μg/mL control IgG antibody (n=3).
(§2) In brief, cells were seeded at 5×10^4/mL in standard growth media, with any necessary cytokines, and the addition of 20 μg/mL IgG or 2, 10 or 20 μg/mL 4D7. Cells were seeded in triplicate and each well was counted in triplicate every 24 hours for 5 days using trypan blue exclusion.

MARIMO cells = assay: Cell proliferation, trypan blue exclusion; conditions: 2, 10 or 20 μg/mL
Experimental: as §1, §2

[2] = system: TF-1 cells with overexpression of wild type CALR; assay: Cell proliferation, trypan blue exclusion; conditions: 10 or 20 μg/mL; 10 ng/ml hTPO
Experimental: as §1, §2

[3] = system: primary CD34+ cells from patients with CALR mutant myelofibrosis; assay: TPO-independent megakaryocyte colony formation on collagen-based medium (MegaCult)
Excerpt: Patient samples were collected with informed consent from the South Australian Cancer Research Biobank (SACRB: Adelaide, Australia). Primary CD34+ stem/progenitor cells from peripheral blood samples from patients with JAK2^V617F or CALR mutant myelofibrosis were purified by flow cytometry using CD34-APC antibody, anti-human CD45RA Brilliant Violet 605, anti-CD90 FITC, anti-human CD123-PE, anti-human CD38 PE-Cy7, or with CD34-APC antibody, anti-human CD3 FITC, anti-human CD19-PE (clone H1B19) and anti-human CD14 PE-Cy7.
For megakaryocyte differentiation assays, CD34+ cells derived from cord blood or from patient peripheral blood mononuclear fractions were plated in Megacult (MegaCult™-C Collagen and Medium with Lipids) with added IL-3 and IL-6 (10 ng/ml) in the presence or absence of 50 ng/mL TPO. Cells were plated at an initial density of 1800 cells/well and cultured for 12 days at 37° C. and 5% CO2. […] Culture media was replenished every 3 days and cells were assessed for megakaryocyte differentiation on day 12 using anti-human CD41/61 PE-Cy7 (Clone A2A9/6) and CountBright beads (Thermo Fisher) to enumerate cell numbers. […] Cells were seeded at approximately 100 cells per well and were cultured in the presence of 20 μg/mL 4D7 or control IgG antibody and scored for colony and blast forming units at 12-14 days.

[4] = system: ruxolitinib-resistant TF-1 TpoR CALR^del61 cells; assay: Colony formation in MethoCult; conditions: after 72 hours of treatment
Experimental: A. Graph showing effect of ruxolitinib on megakaryocyte differentiation at 50 and 100 nM in healthy CD34+ cells (n=4). B. Effect of 4D7 on TPO-dependent megakaryocyte differentiation of healthy CD34+ cells cultured with 20 μg/mL 4D7 or IgG control (n=4). C. Total numbers of hematopoietic colonies plated in MethoCult from healthy cord blood after treatment with 4D7 or IgG. CFU-GM, colony forming unit-granulocyte macrophage: BFU-E, blast forming unit-erythroid: CFU-GEMM, colony forming unit granulocyte, erythroid, monocyte, megakaryocyte (n=3).D. CD41+megakaryocyte colonies from healthy CD34+ cells observed on collagen matrix after 4D7 treatment. Colonies were cultured in TPO, SCF. IL-9 and IL-3. E. Number of megakaryocyte colony forming units observed in MegaCult assay after treatment of healthy cord blood CD34+ cells with either IgG or 4D7 (n=3). F. Western blot showing signalling in ruxolitinib-resistant TF-1 TpoR CALR^del61 compared to ruxolitinib sensitive TF-1 TpoR CALR^del61 cells after treatment with 100 nM ruxolitinib for 16 hours or 30 minutes and blotted for phospho-STAT5, total STAT5, phospho-ERK, total ERK and actin as indicated. Ruxolitinib-sensitive cells were non-viable after 16 hours of treatment. […] Cells counted using Trypan Blue exclusion with replicate wells (n=3). […]

B1: 4D7: rat monoclonal IgG2a antibody against the mutant CALR neoepitope; VH SEQ ID NO: 5, VL SEQ ID NO: 7 (antibody, listed as Rattus rattus, V domains shown)
VH: QVQLQQSGAELAKPGSSVKISCKASGYTFTNYDMSWIKQRPGQALEWIGAINPGNGVTDYNEKFRGKATLTVDKSSSTAFMQLSSLTPEDTAVYHCAREYRDNYGYFDYWGQGVMVTVSS
VL: DIVLTQTPVSLSVTLGDQASISCRSSQSLEYSDGYTYLDWFLQKPGQSPQLLIYEVSSRFSGVPDRFIGRGSGTDFTLKISRVEPEDLGVYYCFQATHDPFTFGSGTKLEIK
binding to the cell surface [1]: Specific binding
inhibition of proliferation (JAK2 V617F SET2 cells): no inhibition
inhibition of proliferation (MARIMO cells): did not show inhibition
inhibition of proliferation [2]: No inhibition
decrease of primary TPO-independent megakaryocyte colonies (colony-forming unit-mega) ([3]; 20 μg/mL vs IgG, n=4 patient samples): 46%
size of megakaryocyte colonies ([3]; patient with a type 2 mutation): substantially smaller
inhibitory activity on colony formation [4]: strong inhibitory activity
